Reference: the supplement of paper PMC10724198
± gives the standard deviation of the averaged measurements.

Columns and labels:
[1] = test system: Saccharomyces cerevisiae; assay: protein stability index of tFT-peptide fusion (C-terminal peptide) (PSI (0-1 scale)); higher = more stable (slower turnover); conditions: genetic background: wild type; temperature: 30 C
[2] = test system: Saccharomyces cerevisiae; assay: as above
Protocol: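 MPS profiling in S. cerevisiae of the tFT-X12 degron library: putative degron peptides plus stable controls, 12 aa, fused to the C-terminus of a sfGFP-mCherry timer. Cells are FACS-sorted into 8 mCherry/sfGFP bins and deep-sequenced. PSI runs from 0 (unstable) to 1 (stable). Backgrounds are wild type, das1Δ and doa10Δ at 30 °C, and wild type, das1Δ, cdc34-1 and cdc53-1 at 37 °C; 2-3 technical replicates each.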

[3] = genetic background: cdc34-1, temperature: 37 C
[4] = genetic background: cdc53-1, temperature: 37 C
[5] = genetic background: das1 deletion, temperature: 30 C
[6] = genetic background: das1 deletion, temperature: 37 C
[7] = genetic background: doa10 deletion, temperature: 30 C
[8] = genetic background: wild type, temperature: 30 C
[9] = genetic background: wild type, temperature: 37 C
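Note: PSI is a weighted mean of sequencing reads over stability bins, variants kept only with over 10 reads, mCherry proximal and sfGFP distal, peptide attached via GGGS linker.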

Row | Sequence | protein stability index [1] | protein stability index [2, 3] | protein stability index [2, 4] | protein stability index [2, 5] | protein stability index [2, 6] | protein stability index [2, 7] | protein stability index [2, 8] | protein stability index [2, 9]
1 | VVFILLFFVFCR | 0.294 ± 0.019 | 0.253 ± 0.027 | 0.271 ± 0.016 | 0.24 ± 0.031 | 0.371 ± 0.0061 | 0.296 ± 0.013 | 0.25 ± 0.021 | 0.314 ± 0.022
2 | VVGITIMVFIIT | 0.333 ± 0.069 | 0.138 ± 0.0028 | 0.195 ± 0.065 | 0.184 ± 0.045 | 0.312 ± 0.0043 | 0.15 ± 0.018 | 0.185 ± 0.027 | 0.326 ± 0.046
3 | VVIGAVLFVVVR | 0.29 ± 0.012 | 0.0736 ± 0.0063 | 0.21 ± 0.015 | 0.157 ± 0.028 | 0.291 ± 0.0065 | 0.12 ± 0.0087 | 0.134 ± 0.035 | 0.25 ± 0.005
4 | VVIWGMLLCGLG | 0.44 ± 0.029 | 0.447 ± 0.0096 | 0.502 ± 0.009 | 0.353 ± 0.029 | 0.539 ± 0.026 | 0.326 ± 0.015 | 0.348 ± 0.018 | 0.487 ± 0.016
5 | VVTICVASWSGL | 0.42 ± 0.0091 | 0.521 ± 0.038 | 0.573 ± 0.011 | 0.352 ± 0.017 | 0.54018 ± 4.7e-05 | 0.362 ± 0.029 | 0.36 ± 0.027 | 0.532 ± 0.012
6 | VVTVCIIRLAWG | 0.367 ± 0.036 | 0.219 ± 0.0046 | 0.315 ± 0.056 | 0.215 ± 0.025 | 0.386 ± 0.014 | 0.189 ± 0.013 | 0.225 ± 0.018 | 0.342 ± 0.019
7 | VVVLRRVIEVMQ | 0.342 ± 0.0062 | 0.327 ± 0.015 | 0.37 ± 0.025 | 0.256 ± 0.03 | 0.448 ± 0.013 | 0.199 ± 0.0065 | 0.253 ± 0.027 | 0.413 ± 0.012
8 | VVVRFCLGICFC | 0.388 ± 0.011 | 0.36066 ± 0.00017 | 0.408 ± 0.013 | 0.301 ± 0.022 | 0.438 ± 0.021 | 0.265 ± 0.0087 | 0.288 ± 0.017 | 0.41 ± 0.012
9 | VWAWAVVVFVVL | 0.241 ± 0.009 | 0.196 ± 0.054 | 0.343 ± 0.0075 | 0.205 ± 0.02 | 0.379 ± 0.017 | 0.171 ± 0.01 | 0.2 ± 0.035 | 0.385 ± 0.046
10 | VWEKGVCGRMVG | 0.703 ± 0.0081 | 0.676 ± 0.015 | 0.7689 ± 0.0024 | 0.652 ± 0.021 | 0.744 ± 0.037 | 0.639 ± 0.012 | 0.6609 ± 0.0066 | 0.7276 ± 0.0072
11 | VWSFFTSFIRYI | 0.169 ± 0.028 | 0.5614 ± 0.0036 | 0.647 ± 0.018 | 0.6542 ± 0.0065 | 0.752 ± 0.041 | 0.106 ± 0.0018 | 0.109 ± 0.022 | 0.114 ± 0.0081
12 | VWVISLCIGGGG | 0.312 ± 0.013 | 0.297 ± 0.0044 | 0.369 ± 0.015 | 0.24 ± 0.028 | 0.405 ± 0.011 | 0.213 ± 0.025 | 0.225 ± 0.021 | 0.3796 ± 0.0035
13 | VWVLLCKYVILL | 0.218 ± 0.0091 | 0.228 ± 0.034 | 0.3521 ± 0.0031 | 0.237 ± 0.036 | 0.457 ± 0.0046 | 0.139 ± 0.021 | 0.145 ± 0.014 | 0.268 ± 0.023
14 | VWWGVGVWLLVG | 0.147 ± 0.04 | 0.104 ± 0.025 | 0.176 ± 0.02 | 0.242 ± 0.015 | 0.369 ± 0.011 | 0.0694 ± 0.016 | 0.0673 ± 0.018 | 0.0755 ± 0.036
15 | VYVVCFRLGCWV | 0.297 ± 0.036 | 0.222 ± 0.0066 | 0.321 ± 0.013 | 0.199 ± 0.035 | 0.39 ± 0.0064 | 0.172 ± 0.0025 | 0.2 ± 0.022 | 0.371 ± 0.0082
16 | WAFRLWWFFCLV | 0.375 ± 0.034 | 0.402 ± 0.048 | 0.452 ± 0.02 | 0.437 ± 0.022 | 0.579 ± 0.067 | 0.277 ± 0.01 | 0.257 ± 0.015 | 0.273 ± 0.0095
17 | WALPRILFLRLT | 0.169 ± 0.028 | 0.118 ± 0.074 | 0.157 ± 0.016 | 0.359 ± 0.043 | 0.415 ± 0.0039 | 0.103 ± 0.00013 | 0.0657 ± 0.0088 | 0.0911 ± 0.021
18 | WDSCVGRRGIVA | 0.4869 ± 0.0015 | 0.559 ± 0.025 | 0.63 ± 0.021 | 0.402 ± 0.035 | 0.62 ± 0.025 | 0.388 ± 0.013 | 0.42 ± 0.021 | 0.6038 ± 0.0016
19 | WFGGVRVPRHVV | 0.455 ± 0.032 | 0.651 ± 0.034 | 0.709 ± 0.027 | 0.668 ± 0.018 | 0.7484 ± 0.0044 | 0.394 ± 0.024 | 0.448 ± 0.018 | 0.645 ± 0.026
20 | WFLWWCVCLFVF | 0.307 ± 0.0073 | 0.312 ± 0.015 | 0.314 ± 0.03 | 0.304 ± 0.023 | 0.403 ± 0.018 | 0.2527 ± 0.00072 | 0.255 ± 0.012 | 0.299 ± 0.0032
21 | WFWTFIWLIMDD | 0.439 ± 0.0064 | 0.435 ± 0.049 | 0.501 ± 0.044 | 0.388 ± 0.016 | 0.521 ± 0.025 | 0.399 ± 0.027 | 0.41 ± 0.039 | 0.504 ± 0.043
22 | WGFLRVMVDIEL | 0.252 ± 0.016 | 0.146 ± 0.014 | 0.223 ± 0.1 | 0.198 ± 0.024 | 0.32581 ± 9.3e-05 | 0.164 ± 0.0075 | 0.188 ± 0.023 | 0.303 ± 0.017
23 | WGRTIGATFTGR | 0.595 ± 0.15 | 0.698 ± 0.029 | 0.779 ± 0.0021 | 0.644 ± 0.024 | 0.748 ± 0.0085 | 0.669 ± 0.01 | 0.685 ± 0.013 | 0.746 ± 0.019
24 | WILSIVVWGKRV | 0.188 ± 0.068 | 0.2245 ± 0.0016 | 0.363 ± 0.068 | 0.231 ± 0.025 | 0.433 ± 0.026 | 0.0761 ± 0.025 | 0.114 ± 0.017 | 0.209 ± 0.019
25 | WMSVKLLTLRLC | 0.199 ± 0.0094 | 0.302 ± 0.091 | 0.357 ± 0.014 | 0.438 ± 0.04 | 0.551 ± 0.019 | 0.108 ± 0.031 | 0.105 ± 0.017 | 0.124 ± 0.0049
26 | WPRLSHIASFLA | 0.459 ± 0.025 | 0.675 ± 0.039 | 0.724 ± 0.038 | 0.682 ± 0.021 | 0.729 ± 0.01 | 0.26889 ± 7.6e-05 | 0.326 ± 0.021 | 0.509 ± 0.0095
27 | WRFFLLLFFFGF | 0.465 ± 0.026 | 0.493 ± 0.0066 | 0.536 ± 0.024 | 0.44 ± 0.04 | 0.601 ± 0.045 | 0.425 ± 0.0095 | 0.428 ± 0.024 | 0.531 ± 0.012
28 | WRIDVTIVCLGY | 0.3 ± 0.03 | 0.157 ± 0.03 | 0.256 ± 0.042 | 0.19 ± 0.033 | 0.3084 ± 0.0029 | 0.169 ± 0.01 | 0.202 ± 0.029 | 0.294 ± 0.019
29 | WSCGRVWQRFCD | 0.7065 ± 0.0045 | 0.675 ± 0.019 | 0.74 ± 0.01 | 0.674 ± 0.018 | 0.718 ± 0.039 | 0.678 ± 0.018 | 0.631 ± 0.014 | 0.711 ± 0.016
30 | WSSAHVAWCYTT | 0.304 ± 0.013 | 0.619 ± 0.026 | 0.723 ± 0.021 | 0.5991 ± 0.0031 | 0.7298 ± 0.0027 | 0.1926 ± 0.00045 | 0.217 ± 0.022 | 0.42 ± 0.0059
